Assay results as given in US10004812B2 (priority 2014, dated 2018).
Read-outs that look alike come from different tables or passages of the source. *1 amine or outer side, *2 acyl side, *3 side chain or, on linkers, in order; H or OH if unused. Where a SMILES comes first, the peptide text is derived from it. [ ]: non-standard residue; d: D form. The star is where a group is joined. ξ: configuration not given here. NPrTuv(OPr) = CCCO[C@H](C[C@H](C(C)C)N(CCC)[*:1])c1nc(C(=O)[*:2])cs1; Dolaproine = CO[C@@H]([C@@H]1CCCN1)[C@@H](C)C(=O)O; Hexanoyl(6-maleimido) = O=C1C=CC(=O)N1CCCCCC(=O)*; X1 = COC(=O)[C@@H](C)C[C@H](Cc1ccc(O)cc1)N*; Dil = CC[C@H](C)[C@H](NC)[C@@H](CC(=O)O)OC; PABC = O=C(OCc1ccc(N[*:1])cc1)[*:2]; X2 = C[C@@H](N*)[C@@H](O)c1ccccc1; Cit = NC(=O)NCCC[C@H](N)C(=O)O; NMeV = CN[C@H](C(=O)O)C(C)C; ξIle = CC[C@H](C)C(N)C(=O)O; dPip = O=C(O)[C@H]1CCCCN1

Experiments:
HT1080 cells [1] = assay: Cell proliferation arrest on HT1080 cells (CPA; crystal violet); type: cell-based
Method: Microtubule inhibition activity and cytotoxic activity of each new derivative were evaluated through tubulin polymerization inhibition assay (TPI; Tubulin Polymerization assay kit; Cytoskeleton, Cat. #BKO11P), and cell proliferation arrest on HT1080 cells (CPA; crystal violet).

HT1080-FAP cell line = type: cell-based; conditions: crystal violet viability, FIG. 6, read-out: cytotoxic activity IC50
[2] = test system: rabbit reticulocyte cell-free lysates
[3] = Table 3, published data; cited from earlier work
recombinant human ENG = biological target: T1, recombinant human ENG (Homo sapiens, UniProt P17813); assay: ELISA binding to immobilized recombinant human ENG; conditions: FIG. 3a
T1 sequence (P17813 whole entry, looked up): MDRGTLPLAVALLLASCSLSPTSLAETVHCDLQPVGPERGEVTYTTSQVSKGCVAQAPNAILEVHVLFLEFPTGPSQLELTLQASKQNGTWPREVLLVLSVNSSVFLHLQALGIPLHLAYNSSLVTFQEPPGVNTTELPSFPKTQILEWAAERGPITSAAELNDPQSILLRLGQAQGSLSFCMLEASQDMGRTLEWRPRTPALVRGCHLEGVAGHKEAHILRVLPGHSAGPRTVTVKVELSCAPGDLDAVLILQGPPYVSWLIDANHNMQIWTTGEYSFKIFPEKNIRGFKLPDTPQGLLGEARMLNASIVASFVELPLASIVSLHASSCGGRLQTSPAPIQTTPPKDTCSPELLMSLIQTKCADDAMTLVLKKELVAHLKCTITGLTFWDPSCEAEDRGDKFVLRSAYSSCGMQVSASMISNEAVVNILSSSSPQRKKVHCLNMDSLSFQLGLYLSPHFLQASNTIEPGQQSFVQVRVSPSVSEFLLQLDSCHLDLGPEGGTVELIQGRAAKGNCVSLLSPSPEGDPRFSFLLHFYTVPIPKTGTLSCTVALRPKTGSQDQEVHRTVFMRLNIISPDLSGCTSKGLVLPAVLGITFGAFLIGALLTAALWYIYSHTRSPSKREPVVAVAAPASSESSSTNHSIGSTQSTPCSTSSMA
Method: Bioactivity was analyzed by ELISA using recombinant ENG and detection of bound antibodies with HRP-conjugated anti-human IgG antibodies.

HT1080 cells [4] = assay: Flow cytometry cell binding, ENG-positive HT1080 cells; parameters: species or system human; conditions: FIG. 3b
Method: Purified anti-muENG mE12 and anti-huENG A5 antibodies were analyzed in ELISA for binding to recombinant ENG and using flow cytometry analysis (FACS).
(§1) Purified proteins A5-IgG and mE12-IgG were characterized by SDS-PAGE and size exclusion chromatography. Bioactivity was analyzed by ELISA, using recombinant mouse/human ENG and detection of bound antibodies with HRP-conjugated anti-human IgG antibodies. Cell binding was analyzed by flow cytometry, using ENG-positive HT1080 and ENG expressing mouse eEnd2. Melting points were determined by dynamic light scattering using a zetasizer nano. Affinities were determined by QCM using an Attana A100. Internalization study was performed by indirect immunofluorescence confocal microscopy on permeabilized cells, detecting bound and internalized antibodies with a FITC-labeled secondary antibody.

HT1080 cells [5] = assay: Internalization by indirect immunofluorescence confocal microscopy; type: cell-based, human
Method: as §1
Preliminary internalization studies indicate rapid cellular internalization for A5-IgG against cells expressing human ENG. Indeed within 30 min, almost 90% of the A5-IgG is found within HT1080 cells.

[6] = Melting point by dynamic light scattering (zetasizer nano); type: physicochemical; conditions: thermal stability
Method: as §1

[7] = test system: PAXF-736 pancreas cancer xenograft; assay: Anti-tumoral effect in patient-derived xenograft mouse model for pancreas cancer (PAXF-736); type: in vivo
Method: Both types of immunoconjugates, recNgA- and cytolysin-conjugates, were evaluated for their anti-tumoral effect in vivo in a patient-derived xenograft mouse model for pancreas cancer (PAXF-736), previously selected for antigen expression.
Immunoconjugates were then administrated once a week intraperitoneally over 5 weeks. Tumor volume and body weight were measured every 2-3 days. Vehicle-treated and Gemcitabine-treated (150 mg/kg) PDX mice were used as negative and positive control groups, respectively.

## CC[C@H](C)[C@@H]([C@@H](CC(=O)N1CCC[C@H]1[C@H](OC)[C@@H](C)C(=O)N[C@H](C)[C@@H](O)c1ccccc1)OC)N(C)C(=O)[C@@H](NC(=O)[C@@H](NC)C(C)C)C(C)C [MMAE, reference compound] (H-[NMeV]V[Dil][Dolaproine]-X2)
HT1080 cells [1]
  IC50: 0.1 to 0.6 nM

## CCCO[C@H](C[C@H](C(C)C)N(CCC)C(=O)C(NC(=O)[C@H]1CCCCN1C(=O)OCc1ccc(NC(=O)[C@H](CCCNC(N)=O)NC(=O)[C@@H](NC(=O)CCCCCN2C(=O)C=CC2=O)C(C)C)cc1)[C@@H](C)CC)c1nc(C(=O)N[C@@H](Cc2ccc(O)cc2)C[C@H](C)C(=O)OC)cs1 (stereo partly drawn) [TAM467, Maleimido-Val-Cit-PABOCO-Tubulysin/Cytolysin-TAM461] ({Hexanoyl(6-maleimido)}-V[Cit][PABC][dPip][ξIle][NPrTuv(OPr)]-X1)
HT1080 cells [1]; Homo sapiens, HT-1080
  IC50: 230 to 420 nM

## CCCO[C@H](C[C@H](C(C)C)N(CCC)C(=O)[C@@H](NC(=O)[C@H]1CCCCN1C)[C@@H](C)CC)c1nc(C(=O)N[C@@H](Cc2ccc(O)cc2)C[C@H](C)C(=O)NNC(=O)OCc2ccc(NC(=O)[C@@H](CCCNC(N)=O)NC(=O)[C@H](NC(=O)CCCCCN3C(=O)C=CC3=O)C(C)C)cc2)cs1 [TAM471, Maleimido-Val-Cit-PABOCO-Tubulysin/Cytolysin-TAM470]
HT1080 cells [1]; Homo sapiens, HT-1080
  IC50: 17 to 42 nM

## CCCO[C@H](C[C@H](C(C)C)N(CCC)C(=O)[C@@H](NC(=O)C(C(C)C(=O)OCc1ccc(NC(=O)[C@H](CCCNC(N)=O)NC(=O)[C@@H](NC(=O)CCCCCN2C(=O)C=CC2=O)C(C)C)cc1)[C@@H](C)CC)[C@@H](C)CC)c1nc(C(=O)N[C@@H](Cc2ccccc2)C[C@H](C)C(=O)O)cs1 (stereo partly shown) [TAM551]
HT1080 cells [1]; Homo sapiens, HT-1080
  IC50: 90 nM

## CCCO[C@H](C[C@H](C(C)C)N(CCC)C(=O)[C@@H](NC(=O)[C@H]1CCCCN1C)[C@@H](C)CC)c1nc(C(=O)N[C@@H](Cc2ccc(O)cc2)C[C@H](C)C(=O)NNC(=O)OCCOCCOCCOCCNC(=O)CCCCCN2C(=O)C=CC2=O)cs1 [TAM552]
HT1080 cells [1]; Homo sapiens, HT-1080
  IC50: 10 nM

## CC[C@H](C)[C@H](NC(=O)[C@H]1CCCCN1C)C(=O)N(COC(=O)CC(C)C)[C@H](C[C@@H](OC(C)=O)c1nc(C(=O)N[C@@H](Cc2ccc(O)cc2)C[C@H](C)C(=O)O)cs1)C(C)C [Tubulysin A, reference compound]
HT1080 cells [1]
  IC50: 0.04 to 0.2 nM

## Nigrin b: native (WT) Nigrin b, type 2 ribosome-inactivating protein with A and B chains
HT1080-FAP cell line
  IC50: ~20 nM
[2]
  IC50: ~2.5 pM
[3]
  Mouse LD50: 12,000.00 μgkg^−1

B1: A5-IgG1: human anti-human Endoglin IgG1; heavy chain SEQ ID NO: 3, light chain SEQ ID NO: 4; ADCC/CDC deficient (antibody)
heavy: EVQLLESGGGLVQPGGSLRLSCAASGFTFSSYAMSWVRQAPGKGLEWVSAIYGSDGDTTYADSVKGRFTISRDNSKNTLYLQMNSLRAEDTAVYYCARVFYTAGFDYWGQGTLVTVSSASTKGPSVFPLAPSSKSTSGGTAALGCLVKDYFPEPVTVSWNSGALTSGVHTFPAVLQSSGLYSLSSVVTVPSSSLGTQTYICNVNHKPSNTKVDKKVEPKSCDKTHTCPPCPAPPVAGPSVFLFPPKPKDTLMISRTPEVTCVVVDVSHEDPEVKFNWYVDGVEVHNAKTKPREEQYNSTYRVVSVLTVLHQDWLNGKEYKCKVSNKGLPSSIEKTISKAKGQPREPQVYTLPPSRDELTKNQVSLTCLVKGFYPSDIAVEWESNGQPENNYKTTPPVLDSDGSFFLYSKLTVDKSRWQQGNVFSCSVMHEALHNHYTQKSLSLSPGK
light: DIELTQSPSSLSASVGDRVTITCRASQSISSSLNWYQQKPGKAPKLLIYAASSLQSGVPSRFSGSGSGTDFTLTISSLQPEDFATYYCQQAPAKPPTFGQGTKLEIKRTVAAPSVFIFPPSDEQLKSGTASVVCLLNNFYPREAKVQWKVDNALQSGNSQESVTEQDSKDSTYSLSSTLTLSKADYEKHKVYACEVTHQGLSSPVTKSFNRGEC
modifications: Synthetic sequence A5-IgG1-HC - without signal sequence; Synthetic sequence A5-IgG1-LC - without signal sequence
Recombinant human ENG
  binding to human ENG by ELISA, in words: concentration-dependent binding
HT1080 cells [4]
  binding to human ENG by flow cytometry, in words: concentration-dependent binding
HT1080 cells [5]; HT1080
  internalization (time): 30 to 60 min
HT1080 cells [5]; HT1080 cells, within 30 min, preliminary
  share of antibody found within cells: ~90%
[6]
  Tm (DLS): 72 °C

B2: OMTX505: recNgA immunoconjugate tested in vivo (conjugate)
heavy: QVQLVQSGAEVKKPGASVKVSCKASGYTFTENIIHWVRQAPGQGLEWMGWFHPGSGSIKYNEKFKDRVTMTADTSTSTVYMELSSLRSEDTAVYYCARHGGTGRGAMDYWGQGTLVTVSSASTKGPSVFPLAPSSKSTSGGTAALGCLVKDYFPEPVTVSWNSGALTSGVHTFPAVLQSSGLYSLSSVVTVPSSSLGTQTYICNVNHKPSNTKVDKKVEPKSCDKTHTCPPCPAPPVAGPSVFLFPPKPKDTLMISRTPEVTCVVVDVSHEDPEVKFNWYVDGVEVHNAKTKPREEQYNSTYRVVSVLTVLHQDWLNGKEYKCKVSNKGLPSSIEKTISKAKGQPREPQVYTLPPSRDELTKNQVSLTCLVKGFYPSDIAVEWESNGQPENNYKTTPPVLDSDGSFFLYSKLTVDKSRWQQGNVFSCSVMHEALHNHYTQKSLSLSPGK
light: DIQMTQSPSSLSASVGDRVTITCRASKSVSTSAYSYMHWYQQKPGKAPKLLIYLASNLESGVPSRFSGSGSGTDFTLTISSLQPEDFATYYCQHSRELPYTFGQGTKLEIKRTVAAPSVFIFPPSDEQLKSGTASVVCLLNNFYPREAKVQWKVDNALQSGNSQESVTEQDSKDSTYSLSSTLTLSKADYEKHKVYACEVTHQGLSSPVTKSFNRGEC
chain: MIDYPSVSFNLDGAKSATYRDFLSNLRKTVATGTYEVNGLPVLRRESEVQVKSRFVLVPLTNYNGNTVTLAVDVTNLYVVAFSGNANSYFFKDATEVQKSNLFVGTKQNTLSFTGNYDNLETAANTRRESIELGPSPLDGAITSLYHGDSVARSLLVVIQMVSEAARFRYIEQEVRRSLQQATSFTPNALMLSMENNWSSMSLEIQQAGNNVSPFFGTVQLLNYDHTHRLVDNFEELYKITGIAILLFRCSSPSND
[7]; 0.5 mg/kg, once a week i.p. over 5 weeks, single agent
  in vivo anti-tumoral efficacy: 60%
[7]; combined with Gemcitabine, tumor regression
  tumor growth inhibition: 100%
